B1: KChIP2 (9ql) (protein, UniProt Q9NS61 1-270, looked up, species assumed)
A-type potassium channel modulatory protein KCNIP2: MRGQGRKESLSDSRDLDGSYDQLTGHPPGPTKKALKQRFLKLLPCCGPQALPSVSETLAAPASLRPHRPRLLDPDSVDDEFELSTVCHRPEGLEQLQEQTKFTRKELQVLYRGFKNECPSGIVNEENFKQIYSQFFPQGDSSTYATFLFNAFDTNHDGSVSFEDFVAGLSVILRGTVDDRLNWAFNLYDLNKDGCITKEEMLDIMKSIYDMMGKYTYPALREEAPREHVESFFQKMDRNKDGVVTIEEFIESCQKDENIMRSMQLFDNVI
B2: KChIP3 (p19) (protein, UniProt Q9Y2W7 1-256, looked up, species assumed)
Calsenilin: MQPAKEVTKASDGSLLGDLGHTPLSKKEGIKWQRPRLSRQALMRCCLVKWILSSTAPQGSDSSDSELELSTVRHQPEGLDQLQAQTKFTKKELQSLYRGFKNECPTGLVDEDTFKLIYAQFFPQGDATTYAHFLFNAFDADGNGAIHFEDFVVGLSILLRGTVHEKLKWAFNLYDINKDGYITKEEMLAIMKSIYDMMGRHTYPILREDAPAEHVERFFEKMDRNQDGVVTIEEFLEACQKDENIMSSMQLFENVI

Biological target: T1, rat Kv4.2 α-subunit (rat) (UniProt Q63881)
T1 sequence (looked up): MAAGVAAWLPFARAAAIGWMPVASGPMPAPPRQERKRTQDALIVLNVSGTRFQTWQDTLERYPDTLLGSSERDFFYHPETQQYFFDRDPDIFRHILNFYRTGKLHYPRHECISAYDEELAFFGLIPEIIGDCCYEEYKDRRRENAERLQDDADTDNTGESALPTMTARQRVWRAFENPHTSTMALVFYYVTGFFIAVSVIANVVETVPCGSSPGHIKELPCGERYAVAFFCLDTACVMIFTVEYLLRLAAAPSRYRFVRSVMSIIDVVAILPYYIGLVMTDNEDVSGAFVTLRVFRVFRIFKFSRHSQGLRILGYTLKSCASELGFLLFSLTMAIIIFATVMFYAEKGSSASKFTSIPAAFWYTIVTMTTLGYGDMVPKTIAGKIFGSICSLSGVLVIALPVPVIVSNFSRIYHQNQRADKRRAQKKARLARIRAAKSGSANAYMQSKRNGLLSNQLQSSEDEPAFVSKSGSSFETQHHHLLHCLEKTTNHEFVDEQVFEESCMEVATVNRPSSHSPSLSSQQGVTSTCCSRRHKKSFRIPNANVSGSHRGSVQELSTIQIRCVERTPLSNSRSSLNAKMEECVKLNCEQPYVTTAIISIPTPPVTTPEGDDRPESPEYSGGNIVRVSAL
Assay: cell-based or functional assay

Row | Binder | Inactivation time constant (ms, at 50 mV), CHO cells (rKv4.2 + vector: 28.2) | Peak Current (nA/cell at 50 mV), CHO cells, patch clamp (rKv4.2 + vector: 0.60) | Peak Current Density (pA/pF at 50 mV), CHO cells (rKv4.2 + vector: 25.5) | Recovery from Inactivation Time constant, CHO cells (rKv4.2 + vector: 272.2)
1 | B1 | 95.1 ms | 3.3 nA/cell | 197 pA/pF | 49.5 ms
2 | B2 | 67.2 ms | 3.5 nA/cell | 162 pA/pF | 126 ms

From US20030119102A1
